Measurements reported in patent US20200317768A1 (published 2020).

Tests used:
Assay in all cases: SPR (BIACORE), antibody captured, FcγR as analyte, 25°C
[1] = biological target: T1, cynomolgus monkey FcγRIIb extracellular domain, His-tagged (cynomolgus monkey)
T1 construct: also called cyno FcgRIIb; cynoFcγRIIb; not shown: His-tag added to the C-terminus
T1 chain: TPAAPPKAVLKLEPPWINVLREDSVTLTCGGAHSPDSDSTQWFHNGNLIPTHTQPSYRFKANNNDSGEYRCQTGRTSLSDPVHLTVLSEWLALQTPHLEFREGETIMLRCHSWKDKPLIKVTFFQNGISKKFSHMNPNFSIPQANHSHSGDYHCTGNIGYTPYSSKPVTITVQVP
Method: (§1) The kinetic analysis of interactions between these antibodies and FcγR was carried out using BIACORE® T200 or BIACORE® 4000 (GE Healthcare). HBS-EP+ (GE Healthcare) was used as the running buffer, and the measurement temperature was set to 25° C. A chip produced by immobilizing Protein A. Protein A/G or mouse anti-human IgG kappa light chain (BD Biosciences) onto a Series S Sensor Chip CM4 or CM5 (GE Healthcare) by the amine-coupling method was used. […] After the measurement, the antibody captured on the chip was washed off by allowing reaction with 10 mM glycine-HCl, pH1.5 and 25 mM NaOH so that the chip was regenerated and used repeatedly. The sensorgrams obtained as measurement results were analyzed by the 1:1 Langmuir binding model using the BIACORE® Evaluation Software to calculate the binding rate constant ka (L/mol/s) and dissociation rate constant kd (l/s), and the dissociation constant KD (mol/L) was calculated from these values. […] Regarding such interactions, KD values were calculated using the following 1:1 binding model described in BIACORE® T100 Software Handbook BR1006-48 Edition AE.
(§2) The behavior of interacting molecules according to the 1:1 binding model on BIACORE® can be described by Equation 1: Req=C·R max/(KD+C)+RI, wherein, Req is a plot of steady-state binding levels to analyte concentration. C is concentration, RI is bulk refractive index contribution in the sample, and Rmax is analyte binding capacity of the surface. When this equation is rearranged, KD can be expressed as Equation 2: KD=C·Rmax/(Req−RI)−C. KD can be calculated by substituting the values of Rmax, RI, and C into Equation 1 or Equation 2. From the current measurement conditions, RI=0, C=2 μmol/L can be used.

[2] = biological target: T2, human FcγRIIaR extracellular domain, His-tagged (human, UniProt P12318 34-217)
T2 construct: also called human FcgRIIaR; FcγRIIa (type R); not shown: His-tag added to the C-terminus
T2 chain: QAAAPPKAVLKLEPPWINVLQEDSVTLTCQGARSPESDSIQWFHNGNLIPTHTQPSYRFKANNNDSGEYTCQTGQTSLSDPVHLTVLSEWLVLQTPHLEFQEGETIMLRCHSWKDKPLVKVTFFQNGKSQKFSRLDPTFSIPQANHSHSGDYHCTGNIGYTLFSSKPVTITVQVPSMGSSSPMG
Method: as §1, §2

[3] = biological target: T3, cynomolgus monkey FcγRIIIaS extracellular domain, His-tagged (cynomolgus monkey, UniProt A3RFZ7 21-206 (rhesus entry))
T3 construct: also called cyno FcgRIIIaS; cynoFcγRIIIaS; not shown: His-tag added to the C-terminus
T3 sequence (A3RFZ7 21-206): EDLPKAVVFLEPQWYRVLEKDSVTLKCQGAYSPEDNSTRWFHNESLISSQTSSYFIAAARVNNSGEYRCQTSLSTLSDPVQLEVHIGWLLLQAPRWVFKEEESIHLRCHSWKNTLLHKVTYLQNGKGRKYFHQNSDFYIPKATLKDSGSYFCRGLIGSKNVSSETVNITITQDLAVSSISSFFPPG
Method: as §1, §2

[4] = biological target: T4, cynomolgus monkey FcγRIIa3 extracellular domain, His-tagged (cynomolgus monkey)
T4 construct: also called cyno FcgRIIa3; cynoFcγRIIa3; not shown: His-tag added to the C-terminus
T4 chain: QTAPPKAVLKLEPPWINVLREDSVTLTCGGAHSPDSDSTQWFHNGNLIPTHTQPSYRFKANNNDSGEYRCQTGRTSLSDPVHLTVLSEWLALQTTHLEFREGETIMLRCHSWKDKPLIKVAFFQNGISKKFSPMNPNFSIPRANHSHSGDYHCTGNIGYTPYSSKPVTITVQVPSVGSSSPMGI
Method: as §1, §2

[5] = biological target: T5, human FcγRIIb extracellular domain, His-tagged (human, UniProt P31994 43-217)
T5 construct: also called human FcgRIIb; not shown: His-tag added to the C-terminus
T5 sequence: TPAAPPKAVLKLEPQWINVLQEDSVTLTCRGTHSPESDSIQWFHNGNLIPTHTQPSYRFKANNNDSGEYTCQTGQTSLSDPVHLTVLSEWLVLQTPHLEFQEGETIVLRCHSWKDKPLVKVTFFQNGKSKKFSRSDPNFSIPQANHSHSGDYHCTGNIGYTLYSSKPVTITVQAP
Method: as §1, §2

[6] = biological target: T6, cynomolgus monkey FcγRIIa1 extracellular domain, His-tagged (cynomolgus monkey)
T6 construct: also called cyno FcgRIIa1; cynoFcγRIIa1; not shown: His-tag added to the C-terminus
T6 chain: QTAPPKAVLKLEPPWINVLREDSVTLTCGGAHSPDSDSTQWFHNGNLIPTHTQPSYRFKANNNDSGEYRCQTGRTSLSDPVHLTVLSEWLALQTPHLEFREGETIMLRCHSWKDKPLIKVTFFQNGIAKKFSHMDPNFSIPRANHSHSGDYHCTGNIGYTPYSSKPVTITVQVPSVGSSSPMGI
Method: as §1, §2

Kd [1]: 0.84 µM | Kd [2]: 0.72 µM | Kd [3]: 2.7 µM | Kd [4]: 7.3 µM | Kd [5]: 5.7 µM | Kd [6]: 24 µM
B1: M103205H795-MY267/M103202L889-SK1 (antibody, human IgG1, kappa)
heavy: QVTLKESGPVLVKPTETLTLTCTVSGIDLSHDDISWVRQAPGKGLEWVGIISYAGSTYYASWAKGRLTISKDTSKNQVVLTMTNMDPVDTATYYCARGVPAYSHGGDLWGQGTLVTVSSASTKGPSVFPLAPSSKSTSGGTAALGCLVKDYFPEPVTVSWNSGALTSGVHTFPAVLQSSGLYSLSSVVTVPSSSLGTQTYICNVNHKPSNTKVDKKVEPKSCDKTHTCPPCPAPELLIGPSVFLFPPKPKDTLMISRTPEVTCVVVDVSDEDPEVKFNWYVDGVEVHNAKTKPREEQYNSTYRVVSVLTVLHQDWLNGKEYKCKVSNKALPKPIEKTISKAKGQPREPQVYTLPPSREEMTKNQVSLTCLVKGFYPSDIAVEWESNGQPENNYKTTPPVLDSDGSFFLYSKLTVDKSRWQQGNVFSCSVMHEALHNHYTQKSLSLSP
light: DIVMTQSPATLSLSPGERATLSCTSSQSVYHANWLSWFQQKPGQPPKLLIYWASTLAYGVPSRFSGSGSGTDFTLTISSLQPEDAATYYCAGGYGGGRYAFGQGTKVEIKRTVAAPSVFIFPPSDEQLKSGTASVVCLLNNFYPREAKVQWKVDNALQSGNSQESVTEQDSKDSTYSLSSTLTLSKADYEKHKVYACEVTHQGLSSPVTKSFNRGEC
notes: copies: 2 + 2
